Data taken from patent US12709742B2, “RNA expression modulating or editing method via regulation of Cas13 protein” (Korea Advanced Institute of Science and Technology, priority 2021, dated 2026).

System: Firefly luciferase target RNA
Assay: Dual luciferase reporter assay of paCas13 fragments under blue light stimulation
Format: cell-based
Settings: 488 nm blue light for 24 hours
Method: Specifically, to evaluate the changes in protein levels, HEK293T cells (ATCC) were co-transfected with 10 ng of a double luciferase reporter plasmid (Promega), 75 ng of each inducible Cas13 fragment expressing the plasmid, and 100 ng of a crRNA expression plasmid. 16 hours prior to transfection, the cells were placed in a 96-well plate (Corning) and allowed to grow until reaching 80% confluency. On the next day, 10 μL of Opti-MEM and 10 μL of Opti-MEM containing 0.6 μL of lipofectamine LTX and 0.26 μL of PLUS reagent and all transfected DNA plasmids were mixed, and a total of 20 μL of Opti-MEM I reducing serum medium (ThermoFisher) was added to each well. All solutions were incubated for 5 minutes before slowly added to the cells. […] The experiment was performed in triplicate. The decrease in the target RNA, the Firefly transcript, was confirmed by comparing the expression value at the protein level of the control group Renilla.
Luciferase reporter assay was performed to confirm whether the Cas13b protein was activated by light stimulation when the construct designed in Example 3 was used.
To test the light-inducible RNA targeting of paCas13, the target RNA knockdown activity of paCas13 fragments was evaluated using a dual luciferase system under the blue light stimulation for 24 hours with an LED plate emitting 488 nm of blue light (FIG. 8). […]

B1: nMagH: paCas13 fragments fused with pMag and nMagH (nMag with M135I and M165I mutations) (protein)
chain: HTLYAPGGYDIMGYLDQIGNRPNPQVELGPVDTSCALILCDLKQKDTPIVYASEAFLYMTGYSNAEVLGRNCRFLQSPDGMVKPKSTRKYVDSNTINTIRKAIDRNAEVQVEVVNFKKNGQRFVNFLTIIPVRDETGEYRYSMGFQCETE
modifications: nMagHigh1 amino acid sequence
Target mRNA cleavage with pMag in combination with dimerization partner: Efficient target mRNA cleavage was seen
